These results are taken from the supplement of paper PMC9112550, “Optimization of the antimicrobial peptide Bac7 by deep mutational scanning” (BMC Biology, 2022).

This data set has as its system Escherichia coli TOP10. The experiment in a line: shrunken log2 fold change of peptide-encoding DNA abundance (4.5 h post-induction vs induction); higher = less antimicrobial activity (less host growth inhibition). To be noted: time post-induction: 4.5 h; library: site-saturation at positions 5, 18, 19, 20.
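Further: peptides expressed intracellularly from a pBAD plasmid library in pooled LB shake-flask culture, induced with 0.3% L-arabinose, DNA abundance read by NGS, three biological replicates, DESeq2 with apeglm shrinkage.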

Turning to RRIRDRPPRLPRPRPRPIHPPRP, the “shrunken log2 fold change” value was -0.125.
Next, RRIRDRPPRLPRPRPRPENKPRP: 0.0324; RRIRMRPPRLPRPRPRPNDGPRP: -0.0703; RRIRMRPPRLPRPRPRPSVIPRP: -0.244.
In the case of RRIRQRPPRLPRPRPRPQWYPRP it was -0.0123; in that of RRIRNRPPRLPRPRPRPKWKPRP, 0.0263; in that of RRIRDRPPRLPRPRPRPNIQPRP, -0.0288.
Next, RRIRSRPPRLPRPRPRPQDSPRP: -0.164; RRIRMRPPRLPRPRPRPYPCPRP: 0.0288.
As for RRIRTRPPRLPRPRPRPCETPRP, the “shrunken log2 fold change” value is 0.0184.
In the case of RRIRQRPPRLPRPRPRPCRKPRP, the “shrunken log2 fold change” value was 0.0642.
Regarding RRIRYRPPRLPRPRPRPSGKPRP, the “shrunken log2 fold change” value is -0.447.
RRIRSRPPRLPRPRPRPWKGPRP: the “shrunken log2 fold change” value was -0.0267.
Next, RRIRTRPPRLPRPRPRPGMCPRP: -0.139; RRIRNRPPRLPRPRPRPFYDPRP: 0.18.
RRIRTRPPRLPRPRPRPSEIPRP: the “shrunken log2 fold change” value was -0.242.
Turning to RRIRARPPRLPRPRPRPDFQPRP, the “shrunken log2 fold change” value was 0.149.
Consider RRIRYRPPRLPRPRPRPAWQPRP, for which the “shrunken log2 fold change” value is 0.0499.
Next, RRIRYRPPRLPRPRPRPEHPPRP: -0.143; RRIRVRPPRLPRPRPRPHTYPRP: -0.154; RRIRHRPPRLPRPRPRPFARPRP: -0.107.
In the case of RRIRQRPPRLPRPRPRPHKDPRP it was -0.105; in that of RRIRKRPPRLPRPRPRPVHSPRP, 0.034.
In the case of RRIRSRPPRLPRPRPRPIIYPRP it was -0.182; in that of RRIRGRPPRLPRPRPRPVQHPRP, 0.542; in that of RRIRSRPPRLPRPRPRPVKEPRP, 0.0656.
In the case of RRIRARPPRLPRPRPRPMNGPRP, the “shrunken log2 fold change” value was -0.0023.
Regarding RRIRERPPRLPRPRPRPPRFPRP, the “shrunken log2 fold change” value was 0.26.
In the case of RRIRSRPPRLPRPRPRPSWQPRP it was -0.227; in that of RRIRLRPPRLPRPRPRPETMPRP, 0.0125; in that of RRIRRRPPRLPRPRPRPGYTPRP, 0.243.
Take RRIRCRPPRLPRPRPRPSHKPRP: the “shrunken log2 fold change” value is -0.641.
In the case of RRIRDRPPRLPRPRPRPRIYPRP it was -0.173; in that of RRIRRRPPRLPRPRPRPNDMPRP, 0.13; in that of RRIRGRPPRLPRPRPRPHNSPRP, -0.0747.
With RRIRARPPRLPRPRPRPDEKPRP, the “shrunken log2 fold change” value is 0.447.
RRIRKRPPRLPRPRPRPTMMPRP: the “shrunken log2 fold change” value turned out to be 0.316.
Regarding RRIRKRPPRLPRPRPRPHYSPRP, the “shrunken log2 fold change” value is -0.257.
In the case of RRIRQRPPRLPRPRPRPNGPPRP it was -0.011.
Next, RRIRGRPPRLPRPRPRPKYSPRP: -0.156; RRIRIRPPRLPRPRPRPKEIPRP: -0.113; RRIRARPPRLPRPRPRPRHVPRP: 0.162.
In the case of RRIRGRPPRLPRPRPRPVHTPRP it was 0.174.
Consider RRIRTRPPRLPRPRPRPRPRPRP, for which the “shrunken log2 fold change” value turned out to be 0.81.
As to RRIRSRPPRLPRPRPRPQMPPRP, the “shrunken log2 fold change” value is 0.189.
Next, RRIRERPPRLPRPRPRPEHEPRP: -0.0139.
As to RRIRSRPPRLPRPRPRPIYGPRP, the “shrunken log2 fold change” value was -0.306.
Take RRIRQRPPRLPRPRPRPRGRPRP: the “shrunken log2 fold change” value was 0.256.
On to RRIRHRPPRLPRPRPRPNREPRP, for which the “shrunken log2 fold change” value was -0.107.
In the case of RRIRTRPPRLPRPRPRPQITPRP it was -0.474; in that of RRIRYRPPRLPRPRPRPYWGPRP, -0.0899; in that of RRIRMRPPRLPRPRPRPYSCPRP, -0.706.
As to RRIRMRPPRLPRPRPRPCGIPRP, the “shrunken log2 fold change” value was -0.0517.
With RRIRGRPPRLPRPRPRPLHCPRP, the “shrunken log2 fold change” value turned out to be 0.188.
In the case of RRIRPRPPRLPRPRPRPVYWPRP it was -0.139.
In the case of RRIRCRPPRLPRPRPRPEGRPRP it was 0.0128.
Next, RRIRHRPPRLPRPRPRPETNPRP: 0.0688.
For the sequence RRIRPRPPRLPRPRPRPVINPRP, the “shrunken log2 fold change” value was -0.626.
Next, RRIRGRPPRLPRPRPRPPKSPRP: 0.616; RRIRSRPPRLPRPRPRPVDCPRP: -0.12.
With RRIRVRPPRLPRPRPRPETCPRP, the “shrunken log2 fold change” value came to 0.437.
Next, RRIRARPPRLPRPRPRPAEMPRP: -0.0298; RRIRMRPPRLPRPRPRPFCQPRP: 0.0975; RRIRERPPRLPRPRPRPFFNPRP: 1.38.
Next, RRIRRRPPRLPRPRPRPYFHPRP: -0.387; RRIRDRPPRLPRPRPRPSHPPRP: -0.425.
In the case of RRIRCRPPRLPRPRPRPWKFPRP it was -0.318; in that of RRIRNRPPRLPRPRPRPSVNPRP, -0.201; in that of RRIRTRPPRLPRPRPRPAKRPRP, 0.0872.
With RRIRRRPPRLPRPRPRPQKTPRP, the “shrunken log2 fold change” value is -0.019.
On to RRIRCRPPRLPRPRPRPKTSPRP, for which the “shrunken log2 fold change” value is -0.179.
In the case of RRIRIRPPRLPRPRPRPHRSPRP it was 0.0394; in that of RRIRWRPPRLPRPRPRPIDRPRP, -0.156.
In the case of RRIRERPPRLPRPRPRPMEDPRP it was -0.0739; in that of RRIRWRPPRLPRPRPRPPAVPRP, 0.698; in that of RRIRRRPPRLPRPRPRPQWTPRP, 0.31.
Next, RRIRDRPPRLPRPRPRPMPIPRP: 0.000679.
For the sequence RRIRKRPPRLPRPRPRPRTEPRP, the “shrunken log2 fold change” value stood at 1.04.
In the case of RRIRMRPPRLPRPRPRPAHAPRP it was 1.16.
Regarding RRIRYRPPRLPRPRPRPAFPPRP, the “shrunken log2 fold change” value is -0.139.
Next, RRIRQRPPRLPRPRPRPNWPPRP: 0.192; RRIRRRPPRLPRPRPRPMMKPRP: 0.324.
On to RRIRFRPPRLPRPRPRPSILPRP, for which the “shrunken log2 fold change” value was -0.442.
As for RRIRTRPPRLPRPRPRPPFEPRP, the “shrunken log2 fold change” value stood at 0.156.
Next, RRIRCRPPRLPRPRPRPKEGPRP: 0.201; RRIRWRPPRLPRPRPRPPYAPRP: 0.426.
Next, RRIRVRPPRLPRPRPRPSAHPRP: -0.0182; RRIRCRPPRLPRPRPRPPKDPRP: 0.261.
For RRIRRRPPRLPRPRPRPRDRPRP, the “shrunken log2 fold change” value is 0.713.
Next, RRIRSRPPRLPRPRPRPMLMPRP: 0.00173.
Next, RRIRTRPPRLPRPRPRPLEYPRP: -0.668.
